Source: patent publication US20210063414A1, “METHODS FOR PREVENTING AND/OR TREATING BONE LOSS CONDITIONS BY MODULATING IRISIN” (Dana-Farber Cancer Institute, Inc., priority 2018, published 2021)

Legend:
integrin α11/β1 = molecular target: T1, integrin α11/β1 (Homo sapiens, UniProt P05556+Q9UKX5); experiment: FAK phosphorylation in HEK293T cells with forced expression of integrin α11/β1; assay type: cell-based
T1 construct: expressed in transfected cells; host or cells: HEK293T
Experimental: 100 nM irisin was incubated with 5 nM indicated his-tag integrins followed by immunoprecipitation using Ni-NTA agaroses. Precipitated integrins and co-precipitated irisin were analyzed by immunoblot analysis. […] HEK293T cells were seeded and incubated until 50% cell density. The cells were transfected with 0.1 μg plasmids of indicated integrins. After 48 hours, the cells were re-split to indicated dose of vitronectin-coated plates. Cells were incubated with culture medium for 3 hours. Cells were lysed to detect the indicated protein level using immunoblot analysis. FIG. 15C and FIG. 15D show the immunoblot data. Cells were treated and analyzed as FIG. 14B except using plasmids encoding integrin α5/β1 or integrin α11/β1 (FIG. 15C) integrin αV/β1(FIG. 15D).
HEK293T cells were set up for experiments at 1×10^5 cells per well in 6 well plate. On day 2, cells were transiently transfected with the indicated plasmids with FuGENE® 6 reagent (Roche Applied Science) according to the manufacturer's protocol. […]
Cells were harvested in RIPA buffer containing protease-inhibitor cocktail and phosphataseinhibitor cocktail. […] Protein levels were analyzed via western blot using indicated antibody. […] Protein levels were analyzed using western blot against indicated antibody.

epididymal fat (eWAT) = experiment: Irisin injection in mice: thermogenic and creatine cycle gene mRNA in epididymal fat; assay type: in vivo; conditions: irisin injections 6 days
Experimental: Eight week old mice were injected with indicated dose of irisin or 1 mg/kg CL316243 for 6 days. Epididymal fats (eWAT) were collected and indicated genes mRNA level was analyzed by qPCR. GATM is the first and rate-limiting step of creatine synthesis (Sandell et al. (2003) Proc. Natl. Acad. Sci. U.S.A. 100:4622-4627).
Certain materials and methods were used to generate the results described herein. For example, the data shown in FIG. 1A resulted from MLO-Y4 (an osteocyte-like cell line) cells treated with the indicated concentration of irisin and hydrogen peroxide for 4 hours. Cells were stained with Hoechst 33342 (ThermoFisher Scientific, catalog number H3570) and Eth-D1 (ThermoFisher Scientific, catalog number E1169) and analyzed to determine the percentage of cell death using ImageJ. […] Co-precipitated irisin was analyzed by immunoblot analysis against flag tag (Sigma Aldrich, catalog number A8592). The data shown in FIGS. 5A and 5B were generated from MLO-Y4 cells treated and analyzed as in the experiments used to generate the data shown in FIG. 2D, except that pre-treatment of 100 nM RGDS (FIG. 5A) or echistatin (R & D Systems Inc., catalog number 3202/100U) (FIG. 5B) for 10 minutes was performed before irisin treatment. […] Sclerostin mRNA level was analyzed by qPCR (FIG. 7A). […]

T1 sequence (Q9UKX5 23-1188): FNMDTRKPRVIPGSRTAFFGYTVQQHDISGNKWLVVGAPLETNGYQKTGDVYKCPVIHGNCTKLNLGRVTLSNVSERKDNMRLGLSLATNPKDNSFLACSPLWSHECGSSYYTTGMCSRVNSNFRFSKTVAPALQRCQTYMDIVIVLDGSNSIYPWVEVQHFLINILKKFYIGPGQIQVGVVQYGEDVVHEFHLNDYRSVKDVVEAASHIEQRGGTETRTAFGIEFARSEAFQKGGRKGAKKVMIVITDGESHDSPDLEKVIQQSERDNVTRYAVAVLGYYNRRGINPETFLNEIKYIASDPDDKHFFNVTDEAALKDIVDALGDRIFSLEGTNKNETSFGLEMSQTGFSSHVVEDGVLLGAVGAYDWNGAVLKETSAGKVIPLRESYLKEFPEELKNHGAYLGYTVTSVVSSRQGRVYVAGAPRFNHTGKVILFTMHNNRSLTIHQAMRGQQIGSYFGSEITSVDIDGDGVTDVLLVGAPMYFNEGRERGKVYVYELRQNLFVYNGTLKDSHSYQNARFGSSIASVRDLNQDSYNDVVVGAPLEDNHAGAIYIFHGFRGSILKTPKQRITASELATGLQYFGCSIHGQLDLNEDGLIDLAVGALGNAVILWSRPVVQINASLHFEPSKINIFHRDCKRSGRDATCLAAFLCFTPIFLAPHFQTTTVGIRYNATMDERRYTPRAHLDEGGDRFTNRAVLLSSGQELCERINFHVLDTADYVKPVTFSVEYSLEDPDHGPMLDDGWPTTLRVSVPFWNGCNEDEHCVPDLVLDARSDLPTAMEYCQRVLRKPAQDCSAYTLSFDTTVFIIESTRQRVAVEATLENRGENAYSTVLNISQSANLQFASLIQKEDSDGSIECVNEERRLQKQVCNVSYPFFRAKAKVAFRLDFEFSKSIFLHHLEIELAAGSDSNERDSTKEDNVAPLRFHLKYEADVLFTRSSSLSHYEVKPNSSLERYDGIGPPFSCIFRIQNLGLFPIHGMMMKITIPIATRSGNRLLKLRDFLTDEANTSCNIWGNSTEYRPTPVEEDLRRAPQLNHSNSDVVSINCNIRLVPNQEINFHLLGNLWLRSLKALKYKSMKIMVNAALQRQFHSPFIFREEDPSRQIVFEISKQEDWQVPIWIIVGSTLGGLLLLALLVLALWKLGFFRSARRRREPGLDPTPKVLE
T1 sequence (P05556 21-798): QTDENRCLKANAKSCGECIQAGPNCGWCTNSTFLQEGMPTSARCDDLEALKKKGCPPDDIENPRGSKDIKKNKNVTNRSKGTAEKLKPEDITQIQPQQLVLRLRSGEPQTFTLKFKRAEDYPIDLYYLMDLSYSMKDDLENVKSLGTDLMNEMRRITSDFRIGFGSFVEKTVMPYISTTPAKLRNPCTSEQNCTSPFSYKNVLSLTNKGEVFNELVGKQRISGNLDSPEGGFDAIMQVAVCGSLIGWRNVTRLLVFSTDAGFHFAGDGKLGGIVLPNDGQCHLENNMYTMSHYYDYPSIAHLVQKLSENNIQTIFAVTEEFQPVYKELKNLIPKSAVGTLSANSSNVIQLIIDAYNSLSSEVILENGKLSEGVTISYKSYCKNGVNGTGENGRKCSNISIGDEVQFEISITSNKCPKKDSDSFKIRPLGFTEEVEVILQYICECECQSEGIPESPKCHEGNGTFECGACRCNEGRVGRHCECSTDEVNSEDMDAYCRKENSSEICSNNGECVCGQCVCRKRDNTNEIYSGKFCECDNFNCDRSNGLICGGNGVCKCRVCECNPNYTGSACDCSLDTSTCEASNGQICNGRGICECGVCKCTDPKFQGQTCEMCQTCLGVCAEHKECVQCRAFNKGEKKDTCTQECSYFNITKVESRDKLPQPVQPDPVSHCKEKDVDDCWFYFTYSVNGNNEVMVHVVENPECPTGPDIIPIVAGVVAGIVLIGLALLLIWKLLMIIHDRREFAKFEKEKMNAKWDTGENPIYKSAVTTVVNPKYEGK

B1: irisin: secreted cleaved form of FNDC5; recombinant human/mouse irisin with C-terminal his tag produced in HEK293 cells (protein)
chain: DSPSAPVNVTVRHLKANSAVVSWDVLEDEVVIGFAISQQKKDVRMLRFIQEVNTTTRSCALWDLEEDTEYIVHVQAISIQGQSPASEPVLFKTPREAEKMASKNKDEVTMKE
modifications: left off: small tags and cut ends
notes: secreted cleaved form of FNDC5; recombinant human/mouse irisin with C-terminal his tag produced in HEK293 cells
- phosphorylation of FAK upon irisin treatment (integrin α11/β1): little phosphorylation of FAK above background
- expression of futile creatine cycle genes (GATM, CKMT2, CKB) (epididymal fat (eWAT)): also increased expression
- mRNAs of classical thermogenic pathway genes (UCP1, DIO 2) (epididymal fat (eWAT)): increased expression
